# According to the supplement of paper PMC10724198:
# ± gives the standard deviation of the averaged measurements.
# Key:
# Saccharomyces cerevisiae [1] = experiment: protein stability index of tFT-peptide fusion (C-terminal peptide) (PSI (0-1 scale)); higher = more stable (slower turnover)
# Protocol: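 MPS profiling in S. cerevisiae of the tFT-X12 degron library: putative degron peptides plus stable controls, 12 aa, fused to the C-terminus of a sfGFP-mCherry timer. Cells are FACS-sorted into 8 mCherry/sfGFP bins and deep-sequenced. PSI runs from 0 (unstable) to 1 (stable). Backgrounds are wild type, das1Δ and doa10Δ at 30 °C, and wild type, das1Δ, cdc34-1 and cdc53-1 at 37 °C; 2-3 technical replicates each.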
# Saccharomyces cerevisiae [2] = experiment: as above; details: genetic background: wild type; temperature: 30 C
# [3] = genetic background: cdc34-1, temperature: 37 C
# [4] = genetic background: cdc53-1, temperature: 37 C
# [5] = genetic background: das1 deletion, temperature: 30 C
# [6] = genetic background: das1 deletion, temperature: 37 C
# [7] = genetic background: doa10 deletion, temperature: 30 C
# [8] = genetic background: wild type, temperature: 30 C
# [9] = genetic background: wild type, temperature: 37 C
# 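Also: PSI is a weighted mean of sequencing reads over stability bins, variants kept only with over 10 reads, mCherry proximal and sfGFP distal, peptide attached via GGGS linker.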
Sequence,protein stability index (Saccharomyces cerevisiae [1]; [3]),protein stability index (Saccharomyces cerevisiae [1]; [4]),protein stability index (Saccharomyces cerevisiae [1]; [5]),protein stability index (Saccharomyces cerevisiae [1]; [6]),protein stability index (Saccharomyces cerevisiae [1]; [7]),protein stability index (Saccharomyces cerevisiae [1]; [8]),protein stability index (Saccharomyces cerevisiae [1]; [9]),protein stability index (Saccharomyces cerevisiae [2])
VCDPWVFIRCLV,0.418 ± 0.015,0.57354 ± 0.00022,0.418 ± 0.031,0.6025 ± 0.0034,0.11 ± 0.0075,0.118 ± 0.032,0.104 ± 0.018,0.234 ± 0.1
LLMCCLPFLWVF,0.409 ± 0.033,0.432 ± 0.011,0.328 ± 0.039,0.4679 ± 0.0022,0.2085 ± 0.002,0.228 ± 0.022,0.316 ± 0.0053,0.306 ± 0.021
GLLAEPALLLLS,0.661 ± 0.06,0.699 ± 0.027,0.618 ± 0.0073,0.724 ± 0.023,0.604 ± 0.037,0.62 ± 0.025,0.6881 ± 0.0066,0.499 ± 0.1
HLILWLFFVIVF,0.237 ± 0.012,0.193 ± 0.047,0.216 ± 0.024,0.333 ± 0.0038,0.237 ± 0.012,0.186 ± 0.012,0.271 ± 0.0074,0.304 ± 0.23
YAFSTCTILIRF,0.187 ± 0.0071,0.154 ± 0.044,0.211 ± 0.034,0.338 ± 0.015,0.38 ± 0.013,0.222 ± 0.018,0.3071 ± 0.0018,0.328 ± 0.048
LRLCMVFAWFLT,0.388 ± 0.011,0.508 ± 0.039,0.351 ± 0.029,0.493 ± 0.021,0.1836 ± 0.00086,0.216 ± 0.03,0.3924 ± 0.0028,0.337 ± 0.023
IEVACLLTAFCD,0.22 ± 0.026,0.262 ± 0.0062,0.257 ± 0.028,0.225 ± 0.0027,0.282 ± 0.043,0.266 ± 0.033,0.209 ± 0.0052,0.251 ± 0.027
PCLPLTPMWTLF,0.713 ± 0.034,0.789 ± 0.021,0.678 ± 0.0076,0.7793 ± 0.0028,0.3716 ± 0.0014,0.42 ± 0.022,0.611 ± 0.018,0.493 ± 0.0072
AFRFLAVCVGCG,0.144 ± 0.009,0.158 ± 0.013,0.218 ± 0.02,0.291 ± 0.0069,0.168 ± 0.0081,0.205 ± 0.018,0.24 ± 0.0071,0.263 ± 0.068
SGRFRAFVLRSM,0.692 ± 0.012,0.746 ± 0.01,0.646 ± 0.029,0.7 ± 0.036,0.272 ± 0.019,0.298 ± 0.035,0.56 ± 0.032,0.476 ± 0.0099
RYLHFASLLFAS,0.658 ± 0.019,0.709 ± 0.0084,0.585 ± 0.012,0.729 ± 0.0093,0.179 ± 0.006,0.226 ± 0.035,0.52 ± 0.016,0.364 ± 0.014
FLVIILFFLYMR,0.144 ± 0.043,0.0943 ± 0.015,0.176 ± 0.042,0.232 ± 0.023,0.398 ± 0.017,0.184 ± 0.041,0.185 ± 0.02,0.209 ± 0.011
SRLMLPLSPLVC,0.41 ± 0.011,0.455 ± 0.0065,0.301 ± 0.045,0.5021 ± 0.0044,0.2762 ± 0.0016,0.313 ± 0.016,0.465 ± 0.0065,0.379 ± 0.045
VFSLFLVLNYPF,0.302 ± 0.046,0.296 ± 0.043,0.373 ± 0.021,0.495 ± 0.01,0.466 ± 0.021,0.362 ± 0.012,0.432 ± 0.025,0.446 ± 0.037
MGVTVRVEGIRA,0.52 ± 0.036,0.517 ± 0.013,0.368 ± 0.03,0.55332 ± 0.0004,0.3374 ± 0.00071,0.383 ± 0.013,0.537 ± 0.015,0.369 ± 0.084
CGFVCGLCLCRV,0.552 ± 0.052,0.586 ± 0.016,0.364 ± 0.04,0.605 ± 0.042,0.345 ± 0.023,0.381 ± 0.031,0.572 ± 0.013,0.484 ± 0.0062
RPPSLVFLFLLT,0.551 ± 0.062,0.587 ± 0.021,0.441 ± 0.048,0.598 ± 0.01,0.401 ± 0.026,0.395 ± 0.015,0.573 ± 0.023,0.441 ± 0.032
CLHFLTWVRICS,0.2 ± 0.041,0.4701 ± 0.0029,0.409 ± 0.019,0.526 ± 0.011,0.0895 ± 0.0063,0.0814 ± 0.025,0.0804 ± 0.03,0.285 ± 0.041
VGVSCVVCVCGV,0.493 ± 0.0071,0.471 ± 0.02,0.289 ± 0.034,0.514 ± 0.0077,0.2604 ± 0.0024,0.295 ± 0.017,0.4873 ± 0.0037,0.3704 ± 0.0011
TGRLFVSLRVWY,0.321 ± 0.0046,0.375 ± 0.055,0.295 ± 0.035,0.467 ± 0.0072,0.302 ± 0.015,0.305 ± 0.006,0.442 ± 0.0058,0.437 ± 0.038

Sequence,protein stability index (Saccharomyces cerevisiae [1]; [3]),protein stability index (Saccharomyces cerevisiae [1]; [4]),protein stability index (Saccharomyces cerevisiae [1]; [5]),protein stability index (Saccharomyces cerevisiae [1]; [6]),protein stability index (Saccharomyces cerevisiae [1]; [7]),protein stability index (Saccharomyces cerevisiae [1]; [8]),protein stability index (Saccharomyces cerevisiae [1]; [9]),protein stability index (Saccharomyces cerevisiae [2])
SELLVHVVFWLA,0.268 ± 0.013,0.438 ± 0.038,0.289 ± 0.03,0.463 ± 0.012,0.1383 ± 0.00086,0.176 ± 0.019,0.303 ± 0.011,0.247 ± 0.025
PTPSRPPHPPLR,0.704 ± 0.049,0.752 ± 0.05,0.633 ± 0.013,0.725 ± 0.054,0.658 ± 0.025,0.66 ± 0.0015,0.69 ± 0.0022,0.704 ± 0.02
LYVQSVCFSVPR,0.463 ± 0.024,0.537 ± 0.017,0.445 ± 0.021,0.5091 ± 0.002,0.497 ± 0.052,0.431 ± 0.012,0.486 ± 0.0089,0.422 ± 0.012
RISGSIVVRKRS,0.673 ± 0.032,0.738 ± 0.011,0.642 ± 0.015,0.722 ± 0.019,0.425 ± 0.0081,0.45 ± 0.033,0.6333 ± 0.0061,0.554 ± 0.1
GSVHLTKERHLV,0.66 ± 0.028,0.74 ± 0.03,0.648 ± 0.032,0.7436 ± 0.0024,0.207 ± 0.0061,0.241 ± 0.036,0.499 ± 0.0063,0.319 ± 0.016
LVIFSLLFSFSH,0.22 ± 0.011,0.325 ± 0.047,0.212 ± 0.032,0.394 ± 0.018,0.194 ± 0.0075,0.232 ± 0.015,0.3837 ± 0.00069,0.32 ± 0.028
LSVRLYRTVFLV,0.359 ± 0.044,0.603 ± 0.016,0.53 ± 0.02,0.6697 ± 0.0046,0.0603 ± 0.012,0.0721 ± 0.0073,0.0864 ± 0.023,0.148 ± 0.02
GGMGLWCCVSVG,0.665 ± 0.01,0.6779 ± 0.0056,0.528 ± 0.027,0.68341 ± 0.00034,0.513 ± 0.015,0.54 ± 0.015,0.651 ± 0.0083,0.527 ± 0.099
SYALGNVVGGSL,0.675 ± 0.045,0.75 ± 0.015,0.637 ± 0.018,0.748 ± 0.014,0.631 ± 0.025,0.645 ± 0.0065,0.721 ± 0.022,0.72 ± 0.013
VGGLGWCWVCMA,0.573 ± 0.041,0.718 ± 0.035,0.595 ± 0.017,0.75 ± 0.013,0.132 ± 0.01,0.158 ± 0.023,0.246 ± 0.0056,0.25 ± 0.016
RLPSSNVRYWVS,0.637 ± 0.037,0.729 ± 0.012,0.64 ± 0.012,0.751 ± 0.032,0.1599 ± 0.001,0.183 ± 0.012,0.394 ± 0.037,0.235 ± 0.035
FKWVSRIRLLDA,0.485 ± 0.014,0.566 ± 0.049,0.51 ± 0.023,0.483 ± 0.0055,0.24 ± 0.028,0.246 ± 0.016,0.411 ± 0.017,0.316 ± 0.027
WLCWVVWFPGLF,0.395 ± 0.035,0.509 ± 0.028,0.369 ± 0.032,0.541 ± 0.012,0.1615 ± 0.00068,0.171 ± 0.012,0.297 ± 0.015,0.244 ± 0.035
AWPGRLWYFWLA,0.655 ± 0.028,0.7846 ± 0.0056,0.637 ± 0.018,0.755 ± 0.011,0.189 ± 0.0052,0.215 ± 0.025,0.4106 ± 0.003,0.251 ± 0.14
FCSLLVLLFFGV,0.395 ± 0.042,0.4792 ± 0.0038,0.334 ± 0.018,0.473 ± 0.0052,0.323 ± 0.025,0.337 ± 0.022,0.466 ± 0.013,0.39365 ± 4e-05
GLLLRLRNLFCM,0.759 ± 0.087,0.8043 ± 0.0034,0.748 ± 0.019,0.851 ± 0.028,0.387 ± 0.026,0.391 ± 0.02,0.547 ± 0.05,0.522 ± 0.042
PSPPPYAPPIPA,0.549 ± 0.03,0.611 ± 0.055,0.44 ± 0.023,0.5857 ± 0.0057,0.416 ± 0.019,0.447 ± 0.021,0.563 ± 0.02,0.488 ± 0.0057
ASLVGGVLLVVV,0.495 ± 0.0051,0.5 ± 0.012,0.346 ± 0.032,0.535 ± 0.0056,0.313 ± 0.017,0.352 ± 0.022,0.502 ± 0.022,0.454 ± 0.011
HRFCAPSLSASD,0.675 ± 0.007,0.722 ± 0.013,0.6628 ± 0.0047,0.7288 ± 0.0054,0.665 ± 0.024,0.666 ± 0.012,0.696 ± 0.0086,0.697 ± 0.062
